According to the RNAGym collection of RNA variant scans (doi:10.7554/elife.80360):

B1: HDV Ribozyme (parent)
chain: GGCCGGCAUGGUCCCAGCCUCCUCGCUGGCGCCGGCUGGGCAACAUUCCGAGGGGACCGUCCCCUCGGUAAUGGCGAAUGGGACCCA

Variants of: B1
Assay: self-cleavage, relative activity (ratio to wild type); higher = more cleavage; co-transcriptional

| Variant | self-cleavage |
| --- | --- |
| GGCCGGCAUGGUCCCAGCCUCCUCGCUGGCGCCGGCUGGGCAACAUUCCGAGGGGACCGUCCCCUCGGUAAUGGCGAAGGGGACCGA | 0.712 |
| GGCCGGCAUGGUCCCAGCCUCCUCGCUGGCGCCGGCUGGGCAACAUUCCGAGGGGACCGUCCCCUCGGUAAUGGCGAAGGGGACCUA | 0.739 |
| GGCCGGCAUGGUCCCAGCCUCCUCGCUGGCGCCGGCUGGGCAACAUUCCGAGGGGACCGUCCCCUCGGUAAUGGCGAAUAGGUCCCA | 0.229 |
| GGCCGGCAUGGUCCCAGCCUCCUCGCUGGCGCCGGCUGGGCAACAUUCCGAGGGGACCGUCCCCUCGGUAAUGGCGAAUAGGGCCCA | 0.396 |
| GGCCGGCAUGGUCCCAGCCUCCUCGCUGGCGCCGGCUGGGCAACAUUCCGAGGGGACCGUCCCCUCGGUAAUGGCGAAGGUGACCCA | 0.225 |
| GGCCGGCAUGGUCCCAGCCUCCUCGCUGGCGCCGGCUGGGCAACAUUCCGAGGGGACCGUCCCCUCGGUAAUGGCGAAGGAGACCCA | 0.146 |
| GGCCGGCAUGGUCCCAGCCUCCUCGCUGGCGCCGGCUGGGCAACAUUCCGAGGGGACCGUCCCCUCGGUAAUGGCGAAUAGGACCCC | 0.33 |
| GGCCGGCAUGGUCCCAGCCUCCUCGCUGGCGCCGGCUGGGCAACAUUCCGAGGGGACCGUCCCCUCGGUAAUGGCGAACGGGACCUA | 0.696 |
| GGCCGGCAUGGUCCCAGCCUCCUCGCUGGCGCCGGCUGGGCAACAUUCCGAGGGGACCGUCCCCUCGGUAAUGGCGAACGGGACCGA | 0.284 |
| GGCCGGCAUGGUCCCAGCCUCCUCGCUGGCGCCGGCUGGGCAACAUUCCGAGGGGACCGUCCCCUCGGUAAUGGCGAAGAGGACCCA | 0.249 |
| GGCCGGCAUGGUCCCAGCCUCCUCGCUGGCGCCGGCUGGGCAACAUUCCGAGGGGACCGUCCCCUCGGUAAUGGCGAAGUGGACCCA | 0.366 |
| GGCCGGCAUGGUCCCAGCCUCCUCGCUGGCGCCGGCUGGGCAACAUUCCGAGGGGACCGUCCCCUCGGUAAUGGCGAAGGGGGCCCA | 0.138 |
| GGCCGGCAUGGUCCCAGCCUCCUCGCUGGCGCCGGCUGGGCAACAUUCCGAGGGGACCGUCCCCUCGGUAAUGGCGAAGGGGACGCA | 0.575 |
| GGCCGGCAUGGUCCCAGCCUCCUCGCUGGCGCCGGCUGGGCAACAUUCCGAGGGGACCGUCCCCUCGGUAAUGGCGAAGGGGACUCA | 0.705 |
| GGCCGGCAUGGUCCCAGCCUCCUCGCUGGCGCCGGCUGGGCAACAUUCCGAGGGGACCGUCCCCUCGGUAAUGGCGAACGGGACCCU | 0.373 |
| GGCCGGCAUGGUCCCAGCCUCCUCGCUGGCGCCGGCUGGGCAACAUUCCGAGGGGACCGUCCCCUCGGUAAUGGCGAACCGGACCCA | 0.208 |

| Variant | self-cleavage |
| --- | --- |
| GGCCGGCAUGGUCCCAGCCUCCUCGCUGGCGCCGGCUGGGCAACAUUCCGAGGGGACCGUCCCCUCGGUAAUGGCGAACGGGAUCCA | 0.332 |
| GGCCGGCAUGGUCCCAGCCUCCUCGCUGGCGCCGGCUGGGCAACAUUCCGAGGGGACCGUCCCCUCGGUAAUGGCGAACGGGAGCCA | 0.214 |
| GGCCGGCAUGGUCCCAGCCUCCUCGCUGGCGCCGGCUGGGCAACAUUCCGAGGGGACCGUCCCCUCGGUAAUGGCGAAGGGGACCCA | 0.742 |
| GGCCGGCAUGGUCCCAGCCUCCUCGCUGGCGCCGGCUGGGCAACAUUCCGAGGGGACCGUCCCCUCGGUAAUGGCGAAGGGAACCCA | 0.0875 |
| GGCCGGCAUGGUCCCAGCCUCCUCGCUGGCGCCGGCUGGGCAACAUUCCGAGGGGACCGUCCCCUCGGUAAUGGCGAAGGGUACCCA | 0.271 |
| GGCCGGCAUGGUCCCAGCCUCCUCGCUGGCGCCGGCUGGGCAACAUUCCGAGGGGACCGUCCCCUCGGUAAUGGCGAAGGGGAGCCA | 0.185 |
| GGCCGGCAUGGUCCCAGCCUCCUCGCUGGCGCCGGCUGGGCAACAUUCCGAGGGGACCGUCCCCUCGGUAAUGGCGAAGGGGAACCA | 0.38 |
| GGCCGGCAUGGUCCCAGCCUCCUCGCUGGCGCCGGCUGGGCAACAUUCCGAGGGGACCGUCCCCUCGGUAAUGGCGAACGGGACUCA | 0.499 |
| GGCCGGCAUGGUCCCAGCCUCCUCGCUGGCGCCGGCUGGGCAACAUUCCGAGGGGACCGUCCCCUCGGUAAUGGCGAAGGGGACCCC | 0.656 |
| GGCCGGCAUGGUCCCAGCCUCCUCGCUGGCGCCGGCUGGGCAACAUUCCGAGGGGACCGUCCCCUCGGUAAUGGCGAAGGGGACCCU | 0.511 |
| GGCCGGCAUGGUCCCAGCCUCCUCGCUGGCGCCGGCUGGGCAACAUUCCGAGGGGACCGUCCCCUCGGUAAUGGCGAAGGGGACCCG | 0.669 |
| GGCCGGCAUGGUCCCAGCCUCCUCGCUGGCGCCGGCUGGGCAACAUUCCGAGGGGACCGUCCCCUCGGUAAUGGCGAACGGAACCCA | 0.133 |
| GGCCGGCAUGGUCCCAGCCUCCUCGCUGGCGCCGGCUGGGCAACAUUCCGAGGGGACCGUCCCCUCGGUAAUGGCGAACGAGACCCA | 0.208 |
| GGCCGGCAUGGUCCCAGCCUCCUCGCUGGCGCCGGCUGGGCAACAUUCCGAGGGGACCGUCCCCUCGGUAAUGGCGAACGUGACCCA | 0.225 |
| GGCCGGCAUGGUCCCAGCCUCCUCGCUGGCGCCGGCUGGGCAACAUUCCGAGGGGACCGUCCCCUCGGUAAUGGCGAACGCGACCCA | 0.189 |
| GGCCGGCAUGGUCCCAGCCUCCUCGCUGGCGCCGGCUGGGCAACAUUCCGAGGGGACCGUCCCCUCGGUAAUGGCGAAUAGGACCCA | 0.348 |
